Data taken from patent US20220168438A1 (Daiichi Sankyo, published 2022).

How the values were obtained:
[1] = target: T1, human CLDN6 (human, UniProt P56747 1-220); experiment: immunoprecipitation from NTERA-2 cell lysate with 218B1, SDS-PAGE, mass spectrometry of the 18 kDa band
T1 construct: Four-transmembrane protein; It was expressed on 293T cells from human CLDN6/pCMV-Entry (OriGene) and on CHO-K1 cells by cDNA transfection; it was endogenous in the NTERA-2 lysate used for immunoprecipitation; also called claudin-6; human claudin-6
T1 sequence: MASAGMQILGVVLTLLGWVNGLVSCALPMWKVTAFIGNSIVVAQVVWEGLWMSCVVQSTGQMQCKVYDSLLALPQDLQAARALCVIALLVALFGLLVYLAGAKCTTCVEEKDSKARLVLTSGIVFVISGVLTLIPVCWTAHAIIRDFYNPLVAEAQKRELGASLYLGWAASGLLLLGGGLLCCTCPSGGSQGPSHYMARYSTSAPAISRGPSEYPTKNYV
Protocol: 2×10⁷ NTERA-2 cells were collected and washed twice with PBS. The cells were collected by using a cell scraper, and centrifuged at 1500 rpm for 5 minutes. After the supernatant was removed, the cells were resuspended in 2 mL of the lysis buffer, and treated at 4° C. for 30 minutes. The resultant was centrifuged (13000 rpm, 20 minutes, 4° C.) to prepare a cell lysate. Protein G Sepharose/lysis buffer (50% slurry; 180 μL) was added to the cell lysate, and the resultant was rotated at 4° C. for 30 minutes and then centrifuged at 4° C. for 1 hour, and the supernatant was collected. The 218B1 antibody (about 9 μg) was added to the supernatant, and the resultant was rotated at 4° C. for 30 minutes, to which Protein G Sepharose/lysis buffer (50% slurry; 180 μL) was then added, and the resultant was rotated at 4° C. for 1 hour. The Protein G Sepharose was washed six times with the lysis buffer (1 mL), and then resuspended in 1×SDS sample buffer. After the suspension was treated at 100° C. for 5 minutes, the solution was collected as a sample for SDS-PAGE. SDS-PAGE was carried out in the same manner as in 2-2), and the electrophoresis gel was stained with CBB. The part corresponding to 18 kDa was cut out of the electrophoresis gel, and subjected to mass spectrometry.

[2] = target: T2, human CLDN9 (human, UniProt O95484 1-217); experiment: flow cytometry on transiently transfected 293T cells, 1.1-30 µg/mL
T2 construct: Expressed on 293T cells from human CLDN9/pCMV6-Entry (OriGene); Transfection was confirmed with an anti-FLAG antibody
T2 sequence: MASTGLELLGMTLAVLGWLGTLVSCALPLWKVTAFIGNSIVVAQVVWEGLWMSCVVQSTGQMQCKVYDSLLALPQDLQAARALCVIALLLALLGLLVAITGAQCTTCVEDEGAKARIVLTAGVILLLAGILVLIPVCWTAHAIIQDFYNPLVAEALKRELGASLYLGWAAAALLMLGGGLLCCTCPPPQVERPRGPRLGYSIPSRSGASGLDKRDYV
Protocol: (§1) Binding activity of the mouse anti-CLDN6 antibodies produced in Example 6 to human CLDN6 and its family molecules, CLDN3, CLDN4, and CLDN9, was evaluated by using a flow cytometry method. Human CLDN3/pCMV6-Entry, human CLDN4/pCMV6-Entry, human CLDN6/pCMV-Entry, human CLDN9/pCMV6-Entry, or pCMV6-Entry purchased from OriGene Technologies, Inc. was transiently transferred into 293T cells (Thermo Fisher Scientific, HCL4517) by using Lipofectamine 2000 (Thermo Fisher Scientific), and the cells were cultured under conditions of 37° C. and 5% CO₂ overnight, and then a cell suspension was prepared. The transfected 293T cell suspension was centrifuged to remove the supernatant, and a mouse anti-CLDN6 antibody (clone number: B1 or C7) or a mouse IgG1 control antibody (R&D Systems, Inc.) was then added and suspended to a final concentration of 30 μg/mL, 10 μg/mL, 3.3 μg/mL, or 1.1 μg/mL, and the resultant was left to stand at 4° C. for 1 hour. […] In each graph in FIG. 11, the ordinate represents FITC fluorescence intensity indicating the amount of the binding antibody and the abscissa represents antibody concentrations.

[3] = target: T3, human CLDN3 (human, UniProt O15551 1-220); experiment: flow cytometry on transiently transfected 293T cells
T3 construct: whole, on cells
T3 sequence (looked up): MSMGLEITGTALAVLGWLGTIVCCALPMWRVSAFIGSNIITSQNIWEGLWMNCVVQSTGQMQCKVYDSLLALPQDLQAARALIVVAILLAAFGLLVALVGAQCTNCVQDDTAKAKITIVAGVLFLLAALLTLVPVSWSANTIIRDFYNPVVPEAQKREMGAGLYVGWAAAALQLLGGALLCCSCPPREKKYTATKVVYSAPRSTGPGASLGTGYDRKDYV
Protocol: as §1, with “hour. The cells were washed twice with Dulbecco's phosphate buffered saline (Sigma-Aldrich Co. LLC) containing 5% fetal bovine serum (Hyclone) (hereinafter, referred to as 5% FBS-containing PBS), and FLUORESCEIN-CONJUGATED GOAT IGG FRACTION TO MOUSE IGG (WHOLE MOLECULE) (MP Biomedicals, Inc.) 500-fold diluted with 5% FBS-containing PBS was then added thereto, and the cells were suspended and left to stand at 4° C. for 1 hour. After washing twice with 5% FBS-containing PBS, detection was carried out by using a flow cytometer (FC500; Beckman Coulter, Inc.). Data analysis was carried out by using FlowJo (Tree Star, Inc.). To confirm each transfection, the cells were permeabilized with 0.25% Tween 20-containing PBS, and then a mouse anti-FLAG antibody (Sigma-Aldrich Co. LLC) was used.” for “hour.”
(§2) The binding activity of the humanized anti-CLDN6 antibody produced in Example 10 to human CLDN6 and its family molecules, CLDN3, CLDN4, and CLDN9, was evaluated by using a flow cytometry method.

[4] = target: T4, human CLDN4 (human, UniProt O14493 1-209); experiment: as above
T4 construct: whole, on cells
T4 sequence (looked up): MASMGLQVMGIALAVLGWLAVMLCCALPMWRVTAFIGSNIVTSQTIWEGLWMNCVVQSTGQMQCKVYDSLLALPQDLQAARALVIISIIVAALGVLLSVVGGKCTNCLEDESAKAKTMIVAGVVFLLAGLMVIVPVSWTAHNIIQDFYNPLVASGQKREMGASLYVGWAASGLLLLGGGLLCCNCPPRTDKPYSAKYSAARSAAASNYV
Protocol: as §1, with “hour. The cells were washed twice with Dulbecco's phosphate buffered saline (Sigma-Aldrich Co. LLC) containing 5% fetal bovine serum (Hyclone) (hereinafter, referred to as 5% FBS-containing PBS), and FLUORESCEIN-CONJUGATED GOAT IGG FRACTION TO MOUSE IGG (WHOLE MOLECULE) (MP Biomedicals, Inc.) 500-fold diluted with 5% FBS-containing PBS was then added thereto, and the cells were suspended and left to stand at 4° C. for 1 hour. After washing twice with 5% FBS-containing PBS, detection was carried out by using a flow cytometer (FC500; Beckman Coulter, Inc.). Data analysis was carried out by using FlowJo (Tree Star, Inc.). To confirm each transfection, the cells were permeabilized with 0.25% Tween 20-containing PBS, and then a mouse anti-FLAG antibody (Sigma-Aldrich Co. LLC) was used.” for “hour.”
as §2

[5] = target: T1, human CLDN6; experiment: FACS on CHO-K1 cells transfected with human claudin-6 cDNA
[6] = target: T1, human CLDN6; experiment: flow cytometry on transiently transfected 293T cells, 0.8-100 nM
Protocol: (§3) The binding activity of the humanized anti-CLDN6 antibody produced in Example 10 to human CLDN6 and its family molecules, CLDN3, CLDN4, and CLDN9, was evaluated by using a flow cytometry method. Used were 293T cells transiently transfected in the same manner as in Example 7-1. To cells into which a human CLDN6 or human CLDN9 gene had been transferred, the humanized anti-CLDN6 antibody H1L1, H2L2, H1L3, H2L4, or H3L3, or a human IgG1 control antibody (Calbiochem) was added and suspended to a final concentration of 100 nM, 20 nM, 4 nM, or 0.8 nM, and the resultant was left to stand at 4° C. for 30 minutes. To cells into which a human CLDN3 or human CLDN4 gene, or an empty vector had been transferred, the humanized anti-CLDN6 antibody H1L1, H2L2, H1L3, H2L4, or H3L3 was added and suspended to a final concentration of 100 nM, and the resultant was left to stand at 4° C. for 30 minutes. The cells were washed with Dulbecco's phosphate buffered saline (Sigma-Aldrich Co. LLC) containing 5% fetal bovine serum (Hyclone) (hereinafter, referred to as 5% FBS-containing PBS), and FITC AffiniPureF (ab′)2 Fragment Goat Anti-Human IgG (H+L) (Jackson ImmunoResearch Laboratories Inc.) 150-fold diluted with 5% FBS-containing PBS was then added thereto, and the cells were suspended and left to stand at 4° C. for 30 minutes. After washing with 5% FBS-containing PBS, detection was carried out by using a flow cytometer (FC500; Beckman Coulter, Inc.). Data analysis was carried out by using FlowJo (Tree Star, Inc.), and mean fluorescence intensity (MFI) of FITC, which indicates the amount of the binding antibody, was calculated. […] In each graph in FIG. 13, the abscissa represents antibody concentrations and the ordinate represents MFI.

[7] = target: T2, human CLDN9; experiment: as above
Protocol: as §3

Row | Binder | binding result [1] | binding result [2] | binding result [3] | binding result [4] | binding result [5] | binding result [6] | binding result [7]
1 | mouse anti-CLDN6 antibody B1 (antibody, V domains shown, Mouse monoclonal antibody purified from hybridoma 218B1 culture supernatant; also called B1 antibody; 218B1) VH: EVQLQQSGPELVKPGASVKISCKTSGYTFTEYTMHWVQQSHGKSLEWIGGVNPNSGDTSYNQKFKGKATLTVDKSSSTAYMELRSLTSEDSAVYYCARPGGYDVGYYAMDYWGQGTSVTVSS VL: DIQMTQTASSLSASLGDRVTISCRASQDINNYLNWYQQKPDGTVKLLIYFTSRLHSGVPSRFSGSGSGTHYSLTITNLEQEDIATYFCQQGYPLPWTFGGGTKLEIK | binds | binds | no binding (tested: 30 µg/mL (highest concentration tested)) | no binding (tested: 30 µg/mL (highest concentration tested)) |  |  | 
2 | mouse anti-CLDN6 antibody C7 (antibody, V domains shown, Mouse monoclonal antibody purified from hybridoma 218C7 culture supernatant; also called C7 antibody; 218C7) VH: EVQLQQSGPELVKPGASVKISCKTSGYTFTEYTMHWVQQSHGKSLEWIGGVNPNSGDTSYNQKFKGKATLTVDKSSSTAYMELRSLTSEDSAVYYCARPGGYDVGYYAMDYWGQGTSVTVSS VL: DIQMTQTASSLSASLGDRVTISCRASQDINNYLNWYQQKPDGTVKLLIYSTSRLHSGVPSRFSGSGSGTHYSLTITHLEQEDIATYFCQQGYPLPWTFGGGTKLEIK |  | binds | no binding (tested: 30 µg/mL (highest concentration tested)) | no binding (tested: 30 µg/mL (highest concentration tested)) | binds |  | 
3 | humanized anti-CLDN6 antibody H1L3 (antibody, human IgG1, kappa, L234A L235A, V domains shown, Human IgG1 LALA heavy chain and human kappa light chain; also called H1L3 antibody; hH1 + hL3) VH: QVQLVQSGAEVKKPGASVKVSCKASGYTFTEYTMHWVRQAPGQGLEWMGGVNPNSGDTSYAQKFQGRVTITADTSTSTAYMELSSLRSEDTAVYYCARPGGYDVGYYAMDYWGQGTLVTVSS VL: DIQMTQSPSSLSASVGDRVTITCRASQDINNYLNWYQQKPGGAVKLLIYFTSRLHSGVPSRFSGSGSGTDYTLTISSLQPEDFATYYCQQGYPLPWTFGGGTKVEIKR |  |  | no binding (tested: 100 nM) | no binding (tested: 100 nM) |  | binds | binds
